Results taken from patent US20180346564A1 (TEIJIN PHARMA, published 2018).
[ ]: non-standard residue; d: D form. pT = C[C@@H](OP(=O)(O)O)[C@H](N)C(=O)O; pS = N[C@@H](COP(=O)(O)O)C(=O)O

T1: Peptide No. 1, pS46, H-GLKE(pS)PLQT-OH (human, SMILES CC(C)C[C@H](NC(=O)CN)C(=O)N[C@@H](CCCCN)C(=O)N[C@@H](CCC(=O)O)C(=O)N[C@@H](COP(=O)(O)O)C(=O)N1CCC[C@H]1C(=O)N[C@@H](CC(C)C)C(=O)N[C@@H](CCC(N)=O)C(=O)N[C@H](C(=O)O)[C@@H](C)O)
T1 peptide: H-GLKE[pS]PLQT-OH

T2: Peptide No. 2, pS199, H-SGYS(pS)PGSPGC-OH (human, SMILES N[C@@H](CO)C(=O)NCC(=O)N[C@@H](Cc1ccc(O)cc1)C(=O)N[C@@H](CO)C(=O)N[C@@H](COP(=O)(O)O)C(=O)N1CCC[C@H]1C(=O)NCC(=O)N[C@@H](CO)C(=O)N1CCC[C@H]1C(=O)NCC(=O)N[C@@H](CS)C(=O)O)
T2 peptide: H-SGYS[pS]PGSPGC-OH

T3: Peptide No. 3, pS202, H-SSPG(pS)PGTPC-OH (human, SMILES C[C@@H](O)[C@H](NC(=O)CNC(=O)[C@@H]1CCCN1C(=O)[C@H](COP(=O)(O)O)NC(=O)CNC(=O)[C@@H]1CCCN1C(=O)[C@H](CO)NC(=O)[C@@H](N)CO)C(=O)N1CCC[C@H]1C(=O)N[C@@H](CS)C(=O)O)
T3 peptide: H-SSPG[pS]PGTPC-OH

T4: Peptide No. 4, pT212/pS214, H-GCGSPGTPGSRSR(pT)P(pS)LPTPPTREPK-OH (human, phosphothreonine (pT) at peptide position 14 (tau Thr212); phosphoserine (pS) at peptide position 16 (tau Ser214))
T4 peptide: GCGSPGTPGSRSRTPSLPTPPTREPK

T5: Peptide No. 5, pT217, H-GC-GSRSRTPSLP(pT)PPTREPKKVAVV-OH (human, phosphothreonine (pT) at peptide position 13 (tau Thr217))
T5 peptide: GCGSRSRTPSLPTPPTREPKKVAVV

T6: Peptide No. 6, pT231, H-KVAVVR(pT)PPKSPS-OH (human)
T6 peptide: H-KVAVVR[pT]PPKSPS-OH

T7: Peptide No. 7, pS396/pS400/pS404, H-GC-RENAKAKTDHGAEIVYK(pS)PVV(pS)GDT(pS)PRHL-OH (human, phosphoserine (pS) at peptide positions 20, 24 and 28 (tau Ser396, Ser400, Ser404))
T7 peptide: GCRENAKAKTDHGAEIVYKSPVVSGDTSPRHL

T8: Peptide No. 8, pS412, H-NV(pS)STGSC-OH (human, SMILES CC(C)[C@H](NC(=O)[C@@H](N)CC(N)=O)C(=O)N[C@@H](COP(=O)(O)O)C(=O)N[C@@H](CO)C(=O)N[C@H](C(=O)NCC(=O)N[C@@H](CO)C(=O)N[C@@H](CS)C(=O)O)[C@@H](C)O)
T8 peptide: H-NV[pS]STGSC-OH


Columns and labels:
[1] = molecular target: T1, Peptide No. 1, pS46, H-GLKE(pS)PLQT-OH; test: ELISA, coated peptide
Procedure, shortened: (§1)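 Peptides, or their bovine serum albumin or keyhole limpet hemocyanin conjugates, at 1 μg/mL in cold PBS were coated at 50 μL/well overnight at 4 °C, then blocked with 3% BSA-PBS overnight at 4 °C. Purified antibody at 150 ng/mL in 3% BSA-PBS was bound for 90 minutes at room temperature, followed by alkaline phosphatase-labelled goat anti-human IgG (H+L) (2000-fold, 60 minutes). Binding was read as absorbance at 405 nm (reference 550 nm) after 40 minutes of pNPP development.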

[2] = molecular target: T2, Peptide No. 2, pS199, …; test: ELISA, coated peptide
Procedure, shortened: as §1

[3] = molecular target: T3, Peptide No. 3, pS202, H-SSPG(pS)PGTPC-OH; test: ELISA, coated peptide
Procedure, shortened: as §1

[4] = molecular target: T4, Peptide No. 4, pT212/pS214, …; test: ELISA, coated peptide
Procedure, shortened: as §1

[5] = molecular target: T5, Peptide No. 5, pT217, …; test: ELISA, coated peptide
Procedure, shortened: as §1

[6] = molecular target: T6, Peptide No. 6, pT231, …; test: ELISA, coated peptide
Procedure, shortened: as §1

[7] = molecular target: T7, Peptide No. 7, pS396/pS400/pS404, …; test: ELISA, coated peptide
Procedure, shortened: as §1

[8] = molecular target: T8, Peptide No. 8, pS412, H-NV(pS)STGSC-OH; test: ELISA, coated peptide
Procedure, shortened: as §1

[9] = molecular target: T9, His-tagged non-phosphorylated tau protein 4R0N (human, UniProt P10636 2-758); test: SPR Biacore T200, antigen immobilized
T9 construct: Produced by Escherichia coli; negative control in SPR; also called ATGen Cat. No. ATGP0795
T9 sequence (P10636 other isoform, or with tags, fused parts or gaps limits assumed): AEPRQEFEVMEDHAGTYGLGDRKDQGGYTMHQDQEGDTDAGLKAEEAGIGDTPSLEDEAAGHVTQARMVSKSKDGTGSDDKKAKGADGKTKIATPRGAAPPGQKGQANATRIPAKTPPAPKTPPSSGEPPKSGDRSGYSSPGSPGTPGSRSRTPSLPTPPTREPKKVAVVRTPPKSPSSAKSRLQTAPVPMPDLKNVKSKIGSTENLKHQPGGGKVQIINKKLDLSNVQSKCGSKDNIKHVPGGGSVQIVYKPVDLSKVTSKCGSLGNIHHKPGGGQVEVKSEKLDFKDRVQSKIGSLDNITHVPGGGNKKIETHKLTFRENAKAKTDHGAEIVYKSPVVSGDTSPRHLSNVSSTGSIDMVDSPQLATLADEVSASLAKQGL
Experimental: The binding affinities of the hyperphosphorylated tau protein 4R2N (hpTau), non-phosphorylated tau protein 4R0N, monophosphorylated tau peptide 1×P, triphosphorylated tau peptide 3×P, and non-phosphorylated tau peptide Non P with each antibody were measured with an SPR system Biacore T200 (GE Healthcare Japan), in accordance with the instruction manual for evaluation attached to the system.
The His-tagged hpTau or Tau proteins were each immobilized on a sensor chip using an HBS-N buffer (code No. BR-1003-69) as the immobilization reaction solution and allowing a nickel chloride solution to react with the NTA sensor chip for bonding Ni to NTA. Subsequently, the sensor chip was activated with a mixed solution of N-ethyl-N′-(3-dimethylaminopropyl)-carbodiimide hydrochloride (1-ethyl-3-(3-dimethylaminopropyl)carbodiimide hydrochloride: EDC) and N-hydroxysuccinimide (NHS). A solution of each of the His-tagged proteins, adjusted to a concentration of 100 to 500 ng/mL with a 4-(2-hydroxyethyl)-1-piperazineethanesulfonic acid (HEPES) buffer (0.01 M HEPES, 150 mM KCl, 2 mM DTT, 1 mM EDTA, pH 7.2), was applied to the sensor chip, whereby the protein was immobilized on the sensor chip through covalent bonds with the Ni-NTA. The remaining active NHS was blocked with ethanolamine, and Ni ions were removed with an EDTA solution (Ni-affinity amine coupling: see International Publication No. WO2005/022156). The antigen peptides (1×P, 3×P, and Non P) were each immobilized on a sensor chip by activating the NTA sensor chip with a mixed solution of N-ethyl-N′-(3-dimethylaminopropyl)-carbodiimide (EDC) hydrochloride and N-hydroxysuccinimide (NHS), and then applying a solution of the antigen peptide diluted with a 10 mM sodium acetate buffer (pH: 4 to 4.5) to 1 to 10 μM to the sensor chip, whereby the peptide was covalently bound to the sensor chip. The remaining active NHS was blocked with ethanolamine. Thus, sensor chips immobilized respectively with the proteins and peptides mentioned above were produced.
A CAPS buffer (pH 10.5) was applied to these sensor chips at 37° C. to stabilize the protein- or peptide-immobilized surfaces of the sensor chips.

| Binder | binding result [1] | binding result [2] | binding result [3] | binding result [4] | binding result [5] | binding result [6] | binding result [7] | binding result [8] | binding result [9] |
| --- | --- | --- | --- | --- | --- | --- | --- | --- | --- |
| humanized antibody L46H11 (antibody, human IgG1, kappa) heavy: not shown light: DIVMTQSPLSLPVTLGEPASISCRSSQSIVHSNGNTYLEWYLQKPGQSPQLLIYTVSNRFSGVPDRFSGSGSGTDFTLKISRVEAEDLGVYYCFQGSHLPLTFGGGTKVEIKRTVAAPSVFIFPPSDEQLKSGTASVVCLLNNFYPREAKVQWKVDNALQSGNSQESVTEQDSKDSTYSLSSTLTLSKADYEKHKVYACEVTHQGLSSPVTKSFNRGEC | no binding (tested: OD value <0.5; antibody 150 ng/mL) | no binding (tested: OD value <0.5; antibody 150 ng/mL) | no binding (tested: OD value <0.5; antibody 150 ng/mL) | no binding (tested: OD value <0.5; antibody 150 ng/mL) | no binding (tested: OD value <0.5; antibody 150 ng/mL) | no binding (tested: OD value <0.5; antibody 150 ng/mL) | no binding (tested: OD value <0.5; antibody 150 ng/mL) | no binding (tested: OD value <0.5; antibody 150 ng/mL) | no binding (tested: 0.2 to 1 nM) |
| humanized antibody L47H65 (antibody, human IgG1, kappa, V domains shown) VH: EVQLVESGGGLVQPGGSLRLSCAASGFAFNSFALNWVRQAPGKGLEWVVHIRSKTNNYATFYAASVKDRFTVSRDDSQNTAYLQMNSLKTEDTATYYCVRRGPRDSWFGYWGQGTLVTVSS VL: DIVMTQSPLSLPVTLGDPASISCRSSQSIVHSNGNTYLEWYQQKPGQSPQRLIYTVSNRFSGVPDRFSGSGSGTDFTLKISRVEAEDLGVYYCFQGSHLPLTFGGGTKVEIKR | no binding (tested: OD value <0.5; antibody 150 ng/mL) | no binding (tested: OD value <0.5; antibody 150 ng/mL) | no binding (tested: OD value <0.5; antibody 150 ng/mL) | no binding (tested: OD value <0.5; antibody 150 ng/mL) | no binding (tested: OD value <0.5; antibody 150 ng/mL) | no binding (tested: OD value <0.5; antibody 150 ng/mL) | no binding (tested: OD value <0.5; antibody 150 ng/mL) | no binding (tested: OD value <0.5; antibody 150 ng/mL) | no binding (tested: 0.2 to 1 nM) |
| humanized antibody L47H11 (antibody, human IgG1, kappa, V domains shown, VL47/VH11, human IgG1/kappa) VH: EVQLVESGGGLVQPGGSLRLSCAASGFTFSSFALNWVRQAPGKGLEWVGHIRSKTNNYATFYAASVKDRFTVSRDDSQNTAYLQMNSLKTEDTATYYCVRRGPRDSWFGYWGQGTLVTVSS VL: DIVMTQSPLSLPVTLGDPASISCRSSQSIVHSNGNTYLEWYQQKPGQSPQRLIYTVSNRFSGVPDRFSGSGSGTDFTLKISRVEAEDLGVYYCFQGSHLPLTFGGGTKVEIKR | no binding (tested: OD value <0.5; antibody 150 ng/mL) | no binding (tested: OD value <0.5; antibody 150 ng/mL) | no binding (tested: OD value <0.5; antibody 150 ng/mL) | no binding (tested: OD value <0.5; antibody 150 ng/mL) | no binding (tested: OD value <0.5; antibody 150 ng/mL) | no binding (tested: OD value <0.5; antibody 150 ng/mL) | no binding (tested: OD value <0.5; antibody 150 ng/mL) | no binding (tested: OD value <0.5; antibody 150 ng/mL) | no binding (tested: 0.2 to 1 nM) |
| humanized antibody L48H47 (antibody, human IgG1, kappa, V domains shown, VL48/VH47, human IgG1/kappa) VH: EVQLVESGGGLVQPGGSLRLSCAASGFAFNSFALNWVRQAPGKGLEWVGHIRSKTNNYATFYAASVKDRFTVSRDDSQNTAYLQMNSLKTEDTATYYCVRRGPRDSWFGYWGQGTLVTVSS VL: DIVMTQSPLSLPVTLGDPASISCRSSQNIVHSNGNTYLEWYQQKPGQSPQLLIYTVSNRFSGVPDRFSGSGSGTDFTLKISRVEAEDLGVYYCFQGSHLPLTFGGGTKVEIKR | no binding (tested: OD value <0.5; antibody 150 ng/mL) | no binding (tested: OD value <0.5; antibody 150 ng/mL) | no binding (tested: OD value <0.5; antibody 150 ng/mL) | no binding (tested: OD value <0.5; antibody 150 ng/mL) | no binding (tested: OD value <0.5; antibody 150 ng/mL) | no binding (tested: OD value <0.5; antibody 150 ng/mL) | no binding (tested: OD value <0.5; antibody 150 ng/mL) | no binding (tested: OD value <0.5; antibody 150 ng/mL) | no binding (tested: 0.2 to 1 nM) |
| humanized antibody L48H12 (antibody, human IgG1, kappa, V domains shown, VL48/VH12, human IgG1/kappa) VH: EVQLVESGGGLVQPGGSLRLSCAASGFAFNSFALNWVRQAPGKGLEWVGHIRSKTNNYATFYADSVKDRFTVSRDDSKNTAYLQMNSLKTEDTATYYCVRRGPRDSWFGYWGQGTLVTVSS VL: DIVMTQSPLSLPVTLGDPASISCRSSQNIVHSNGNTYLEWYQQKPGQSPQLLIYTVSNRFSGVPDRFSGSGSGTDFTLKISRVEAEDLGVYYCFQGSHLPLTFGGGTKVEIKR | no binding (tested: OD value <0.5; antibody 150 ng/mL) | no binding (tested: OD value <0.5; antibody 150 ng/mL) | no binding (tested: OD value <0.5; antibody 150 ng/mL) | no binding (tested: OD value <0.5; antibody 150 ng/mL) | no binding (tested: OD value <0.5; antibody 150 ng/mL) | no binding (tested: OD value <0.5; antibody 150 ng/mL) | no binding (tested: OD value <0.5; antibody 150 ng/mL) | no binding (tested: OD value <0.5; antibody 150 ng/mL) | no binding (tested: 0.2 to 1 nM) |
